The target in one test is T1, hSTEAP4 fused to GFP (Homo sapiens, UniProt Q687X5).
T1 construct: expressed in transfected cells; host or cells: HEK293
T1 sequence (Q687X5 1-459): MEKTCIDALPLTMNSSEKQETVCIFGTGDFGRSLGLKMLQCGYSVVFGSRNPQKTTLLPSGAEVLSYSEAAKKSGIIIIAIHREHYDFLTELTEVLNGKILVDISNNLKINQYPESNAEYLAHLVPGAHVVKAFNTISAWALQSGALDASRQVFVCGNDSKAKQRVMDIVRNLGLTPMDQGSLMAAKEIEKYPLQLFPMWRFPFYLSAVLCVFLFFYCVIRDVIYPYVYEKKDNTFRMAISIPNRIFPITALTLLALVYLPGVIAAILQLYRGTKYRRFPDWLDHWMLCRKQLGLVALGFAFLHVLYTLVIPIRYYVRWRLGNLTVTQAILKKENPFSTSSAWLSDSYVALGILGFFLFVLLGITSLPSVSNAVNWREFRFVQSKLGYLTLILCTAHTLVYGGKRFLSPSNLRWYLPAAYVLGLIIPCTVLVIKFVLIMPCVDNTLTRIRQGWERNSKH
In words: Specificity: binding to HEK293 cells transfected with hSTEAP4-GFP. Also noted: key: Wells with GFP positive cells that bound anti STEAP2 antibodies were scored as positive (+); those that did not bind anti STEAP2 antibodies were scored as negative (−). The conditions noted are these: transient transfection, 48 h. Here is the method:
(§1) Selected STEAP2 antibodies were then tested for binding to other human (h) STEAP family members (STEAP1, STEAP3, and STEAP4). To assess anti STEAP2 antibody specificity, plasmid constructs expressing hSTEAP1, hSTEAP2, hSTEAP3 or hSTEAP4 fused to Green Fluorescent Protein (GFP) were transiently introduced into HEK293 cells via lipofectamine 2000 based methodology. After 48 h, transiently transfected cells were stained with anti STEAP2 antibodies and imaged as described above for the internalization assay.

Test [1] concerns C4-2 cells (high-STEAP2 expressing). In words: Internalization and total binding on C4-2 cells (imaging, qualitative score). Format: cell-based, human. Also noted: key: − (no internalization or binding); +(weak internalization or binding); ++(moderate internalization or binding); +++(robust internalization or binding). The conditions noted are these: 10 μg/ml antibody. The essentials:
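Live C4-2 cells were labelled on ice with antibody at 10 μg/ml, then with alexa488 anti-hFc Fab, and held 1 h at 37 °C in PBS+2% FBS or kept at 4 °C. After fixation and DRAQ5 nuclear stain, images were scored visually (− to +++) for total binding and vesicular internalization.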

Test [2] has as its system Raji cells (STEAP2 negative). In words: FACS binding to STEAP2-negative Raji cells. The following applies: human-Fc antibodies. Here is the method: (§2) The ability of anti-STEAP2 antibodies to selectively bind to human six-transmembrane epithelial antigen of prostate 2 (STEAP2) endogenously expressing cell lines was determined via FACS analysis.
(§3) Briefly, 1×10^5 cells were incubated with 10 μg/ml of anti STEAP2 antibodies, or isotype control antibodies for 30 min on ice in antibody dilution buffer. Following one wash with antibody dilution buffer, cells were incubated with 10 μg/ml of PE conjugated anti-human or anti mouse Fc secondary antibodies for 30 min on ice. Following one additional wash, samples were incubated with Cytofix (1% formaldehyde) for 20 minutes. After one final wash, samples were filtered through a Pall 96 well filtration block, run on a Hypercyt® cytometer and analyzed in ForeCyt™ (IntelliCyt, Albuquerque, N. Mex.). Mean fluorescence intensities (MFI) were expressed as fold change above unstained levels (background). The average fold above background at antibody concentrations of 100-300 nM were determined. For cell binding EC50 determinations, mAb concentrations ranged from 300 nM to […] and EC50 values were determined from a four-parameter logistic equation over a 12-point response curve (GraphPad Prism).
On the technique in general: Flow cytometry measures light scatter and fluorescence of single cells or particles in a stream.

For test [3], the system named is SKBR3 cells (STEAP2 negative). In words: FACS binding to STEAP2-negative SKBR3 cells. The following applies: human-Fc antibodies. Here is the method: as §2, §3
Test [4] relates to FADU cells (STEAP2 negative). Description: FACS binding to STEAP2-negative FADU cells. The following applies: human-Fc antibodies. As for the experimental part: as §2, §3
The next test addresses T2, hSTEAP1 fused to GFP (Homo sapiens, UniProt Q9UHE8).
T2 construct: expressed in transfected cells; host or cells: HEK293
In words: Specificity: binding to HEK293 cells transfected with hSTEAP1-GFP. Also noted: key: Wells with GFP positive cells that bound anti STEAP2 antibodies were scored as positive (+); those that did not bind anti STEAP2 antibodies were scored as negative (−). The following applies: transient transfection, 48 h. Here is the method: as §1

A further test concerns the target T3, hSTEAP2 fused to GFP (Homo sapiens, UniProt Q8NFT2).
T3 construct: expressed in transfected cells; host or cells: HEK293
T3 sequence (Q8NFT2 1-490): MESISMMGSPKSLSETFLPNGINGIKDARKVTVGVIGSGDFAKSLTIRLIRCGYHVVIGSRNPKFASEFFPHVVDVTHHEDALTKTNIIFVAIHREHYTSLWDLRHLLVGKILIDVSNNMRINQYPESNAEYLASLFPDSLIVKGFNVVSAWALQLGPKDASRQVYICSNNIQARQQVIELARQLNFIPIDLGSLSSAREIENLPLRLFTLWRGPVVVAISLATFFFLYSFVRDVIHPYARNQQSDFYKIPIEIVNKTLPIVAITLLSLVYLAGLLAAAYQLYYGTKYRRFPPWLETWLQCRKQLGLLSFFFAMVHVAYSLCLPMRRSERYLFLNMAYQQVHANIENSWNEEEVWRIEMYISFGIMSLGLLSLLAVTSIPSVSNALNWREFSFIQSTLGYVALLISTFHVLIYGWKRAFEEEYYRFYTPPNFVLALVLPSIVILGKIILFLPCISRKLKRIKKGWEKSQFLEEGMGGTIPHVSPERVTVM
Description: Specificity: binding to HEK293 cells transfected with hSTEAP2-GFP. Also noted: key: Wells with GFP positive cells that bound anti STEAP2 antibodies were scored as positive (+); those that did not bind anti STEAP2 antibodies were scored as negative (−). The following applies: transient transfection, 48 h. Here is the method: as §1

A further test has as its target T4, hSTEAP3 fused to GFP (Homo sapiens, UniProt Q658P3).
T4 construct: expressed in transfected cells; host or cells: HEK293
T4 sequence (Q658P3 1-488): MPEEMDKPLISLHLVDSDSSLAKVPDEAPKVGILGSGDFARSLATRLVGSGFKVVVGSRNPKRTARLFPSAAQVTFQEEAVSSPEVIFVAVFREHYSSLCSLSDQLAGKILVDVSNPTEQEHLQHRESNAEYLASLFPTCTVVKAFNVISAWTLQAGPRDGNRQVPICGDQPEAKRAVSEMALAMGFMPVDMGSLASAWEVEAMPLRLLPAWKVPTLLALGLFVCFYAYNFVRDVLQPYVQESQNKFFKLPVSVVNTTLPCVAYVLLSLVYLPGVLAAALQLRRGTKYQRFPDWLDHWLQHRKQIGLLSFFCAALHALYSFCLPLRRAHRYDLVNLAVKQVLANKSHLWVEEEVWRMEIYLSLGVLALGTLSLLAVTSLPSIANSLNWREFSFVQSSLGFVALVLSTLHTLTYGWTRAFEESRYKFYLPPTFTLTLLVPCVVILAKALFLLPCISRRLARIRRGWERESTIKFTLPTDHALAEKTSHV
In words: Specificity: binding to HEK293 cells transfected with hSTEAP3-GFP. The following applies: transient transfection, 48 h. Also noted: key: Wells with GFP positive cells that bound anti STEAP2 antibodies were scored as positive (+); those that did not bind anti STEAP2 antibodies were scored as negative (−). Here is the method:
as §1

The test system of a further test is cynomolgus T cells. In words: FACS binding titration of STEAP2xCD3 bispecifics on cynomolgus T cells. The following applies: 66.6 nM to 0.001 nM, 30 minutes at 4° C. As for the experimental part: (§4) FACS Binding Titration on Jurkat Cells, PC3_STEAP2/1 Cells and cynomolgus T Cells: Flow cytometric analysis was utilized to determine binding of STEAP2×CD3 bispecific antibodies to Jurkat, PC3_STEAP2/1 chimeric and cynomolgus T cells, followed by detection with a phycoerythrin (PE)-labeled anti-human IgG antibody. Briefly, 2×10^5 cells/well were incubated for 30 minutes at 4° C. with a serial dilution of STEAP2×CD3 bispecific antibodies or control antibody (a human IgG1 antibody that binds a feline antigen with no cross-reactivity to STEAP2 or human or cynomolgus CD3) ranging from 66.6 nM to 0.001 nM. After incubation, the cells were washed twice with cold PBS containing 1% filtered FBS and a PE-conjugated anti-human secondary antibody was added to the cells and incubated for an additional 30 minutes. Wells containing no antibody or secondary antibody only were used as a control. After incubation, cells were washed, re-suspended in 200 μL cold PBS containing 1% filtered FBS and analyzed by flow cytometry on a BD FACS Canto II.

Test [5] concerns PC3_STEAP2/1 cells (PC3 engineered to express a STEAP2/1 chimeric construct). In words: FACS binding titration of STEAP2xCD3 bispecifics on PC3_STEAP2/1 cells. Also noted: species or system human. The following applies: 66.6 nM to 0.001 nM, 30 minutes at 4° C. Here is the method:
as §4

Another test relates to monkey PBMCs. In words: T cell proliferation assay, cynomolgus PBMC. Format: cell-based. The conditions noted are these: donor mk8781M; anti-CD28 500 ng/mL, 72 hours; read-out: Cyno PBMC Proliferation [M] (donor). Here is the method:
Thawed human or freshly isolated monkey PBMCs (50,000 cells/well) were incubated with 3-fold (human, concentration range: 5E-10M to 2.82E-15M; cynomolgus, concentration range: 1E-09M to 4.57E-13M) serial dilutions of STEAP2×CD3 bispecifics or isotype control in complete medium (RPMI supplemented with 10% FBS, 100 U/mL penicillin, 100 μg/mL streptomycin, 292 μg/mL L-glutamine) and a fixed concentration (human: 200 ng/mL, cyno: 500 ng/mL) of a commercial anti-CD28 antibody (Biolegend, Catalog #302914) in white flat bottom 96-well plates for 72 hours at 37° C. Isolated monkey PBMCs were from two donors (identified as mk8781M or mk9381M). Following incubation, CellTiter Glo® (Promega, Cat #7573) was added and luminescence, as readout for cell viability, was measured using a VICTOR X5 multi-label plate reader. Cell titer was calculated by dividing the luminescence of stimulated cells by the baseline luminescence of unstimulated cells.

A further test deals with human CD3 (Jurkat cells). Description: FACS titration of anti-CD3 antibodies on Jurkat cells. The class given is binding. The conditions noted are these: anti-CD3 antibody. An excerpt:
See, e.g. FACS binding experiments outlined in Example 12 and in PCT/US2016/044732 filed Jul. 29, 2016.

From patent US10772972B2, “Anti-STEAP2 antibody drug conjugates, and compositions and uses thereof” (Regeneron Pharmaceuticals, Inc., priority 2016, dated 2020) come the findings set out here.

T2 sequence (Q9UHE8 whole entry, the tested form may be a part): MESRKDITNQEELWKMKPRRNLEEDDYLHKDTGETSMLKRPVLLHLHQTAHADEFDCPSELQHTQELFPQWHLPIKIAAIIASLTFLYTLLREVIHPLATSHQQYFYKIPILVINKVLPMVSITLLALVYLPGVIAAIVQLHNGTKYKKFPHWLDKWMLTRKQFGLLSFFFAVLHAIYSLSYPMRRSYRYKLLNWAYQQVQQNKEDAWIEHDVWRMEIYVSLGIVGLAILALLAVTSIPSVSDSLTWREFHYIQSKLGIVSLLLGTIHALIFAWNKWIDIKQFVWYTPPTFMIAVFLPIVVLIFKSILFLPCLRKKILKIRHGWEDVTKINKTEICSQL

B1: H1H7972P: anti-STEAP2 antibody, HCVR/LCVR SEQ ID NOs 186/194 (antibody, V domains shown)
VH: QVQLQQSGPGLVKPSQTLSLTCAISGDSVSSNSAAWNWIRQSPSRGLEWLGRTYYRSKWYNDYVVSVKSRIIFNPDTSKNQFSLQLNSVTPEDTAVYYCARVRQDYRSGPFDYWGQGTLVTVSS
VL: EIVMTQSPVTLSVSPGERATLSCWASQSVSSSLAWYQQKPGQAPRLLIYGASTRATGIPARFSGSGSGTGFTLTISSLQSEDFAVYYCQQYNNWPFTFGPGTKVDIK
As to B1, the “Binding to hSTEAP4-GFP transfected HEK293 cells” value with hSTEAP4 fused to GFP is listed as “−”. In [1], the “Internalization (37° C., 1 h) Qualitative Score” value is “+” and the “Total Binding (4° C.) Qualitative Score” value was “+”. Also, the “Raji Avg F.A.B (Fold Above Background)” value in test [2] is 59 fold. Also, the “SKBR3 Avg F.A.B (Fold Above Background)” value in [3] came out at 3 fold. Moreover, in test [4], the “FADU Avg F.A.B (Fold Above Background)” value is given as 2 fold. The “Binding to hSTEAP1-GFP transfected HEK293 cells” value with hSTEAP1 fused to GFP is “−”. For the same molecule, the “Binding to hSTEAP2-GFP transfected HEK293 cells” value with hSTEAP2 fused to GFP was “+”. Further, in the test with hSTEAP3 fused to GFP, the “Binding to hSTEAP3-GFP transfected HEK293 cells” value was “−”.

B2: BSSTEAP2/CD3-011: STEAP2×CD3 bispecific: anti-STEAP2 H1H7809N (SEQ 330), anti-CD3 H1H7203P (SEQ 1474), common LCVR of H1H7809N (antibody, V domains shown)
VH 1: QVQLVESGGGVVQPGRSLGLSCAASGFTFSSYGMHWVRQAPGKGLEWVAVIWYDGSNKYYVDSVKGRFTISRDNSKNTLYLQMNSLRAEDTAVYYCAREGLRFLENYYYYYGMDVWGQGTTVTVSS
VH 2: EVQLVQSGGGLVQPGRSLRLSCAASGFTFADYTMHWVRQTPGKGLEWVSGISWNSGSKDYADSVKGRFTISRDNAKNSLYLQMNSLRTEDTALYYCAKYGSGYGRYFFYAMDVWGQGTTVTVSS
VL: EIVLTQSPGTLSLSPGERATLSCRASQSISSTYLAWYQQRPGQAPRLLIYGASSRATGIPDRFSGSGSGTDFTLTISRLEPEDFAVYYCQQYGTSPYTFGQGTKLEIK
In the case of B2, in the test on cynomolgus T cells, the “Cynomolgus T cells EC50 [M]” value is on record as “No Binding”. Further, the “FACS PC3_STEAP2/1 EC50 [M]” value in test [5] is “No Binding”. Moreover, the EC50 with monkey PBMCs is 3.6e-12 M.

B3: CD3-VH-G: anti-CD3 antibody engineered from CD3-VH-P to contain only germline frameworks, HCVR SEQ ID NO: 1730 (antibody, V domains shown)
VH: EVQLVESGGGLVQPGRSLRLSCAASGFTFDDYSMHWVRQAPGKGLEWVSGISWNSGSKGYADSVKGRFTISRDNAKNSLYLQMNSLRAEDTALYYCAKYGSGYGKFYHYGLDVWGQGTTVTVSS
VL: DIQMTQSPSSLSASVGDSVTITCRASQSINNYLNWYQQKPGKAPKLLIYTASSLLSGVPSRFSGSGSGTDFTLTISGLHPEDFATYFCQQSFSTPPITFGQGTRLDIK
In the case of B3, in the test with human CD3 (Jurkat cells), the “EC50, FACS titration of Jurkat cells (human CD3)” value was “retained their binding affinity”.
